Test results published in US20110059504A1 (GENERAL HOSPITAL, published 2011).
Numbering of substitutions follows the chain as printed. Names and notes keep the numbering of the source. Each block holds one binder with its values, some of them ahead of it.

Target: T1, human myostatin (human, UniProt O14793 267-375, biotinylated in selections and radioactive assays (site not stated))
T1 construct: Phage ELISA used both unbiotinylated and biotinylated myostatin; also called biotinylated human myostatin; myostatin-biotin
T1 sequence (looked up): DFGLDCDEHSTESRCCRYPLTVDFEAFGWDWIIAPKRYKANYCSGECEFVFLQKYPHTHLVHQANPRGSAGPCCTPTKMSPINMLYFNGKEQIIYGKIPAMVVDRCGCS
Assay: radioactive equilibrium binding assay
Experimental: Affinities of selected F13β2 binders to biotinylated myostatin were determined in radioactive equilibrium binding assay (FIGS. 11A and 11B; Table 3). ³⁵S-labeled binder proteins from selection pools and single clones were produced in vitro in a rabbit reticulocyte lysate translation kit (Ambion) and purified on M2-agarose (Sigma). Varying concentrations of biotinylated human myostatin (0-100 nM) or other proteins (protein 1: 100 nM; peptide 1: 250 nM; protein 2: 50 nM) were incubated with a constant concentration of the purified binder protein (1 or 2 nM) at 30° C. for 30 min in buffer B (1×PBS, 0.02% Triton X-100 [pH 7.4]). The receptor-binder complexes were captured by using 25 μl of M280 or Protein A (Dynal) (protein 2) magnetic beads for 10 min at room temperature on a Kingfisher instrument (Thermo Fisher Scientific). The beads were washed five times with 100 μl buffer B, and the amount of ³⁵S-methionine remained on the beads was measured by scintillation counting. Data were analyzed by using the GraphPad Prism software (GraphPad Software, Inc., San Diego, Calif.), fitted with a one-site, nonlinear binding equation. For inhibition assay the binding of ³⁵S-labeled proteins to 20 or 25 nM of biotinylated human myostatin was performed in the presence of varying concentrations of inhibitor (human activin receptor IIB/Fc chimera (R&D Systems, Minneapolis, Minn.) (0-250 nM); protein 1 (100 nM), peptide 1 (250 nM), protein 2 (50 nM); proteins, produced in E. coli, M17, M7, M29, M21, M1-1, WT F13β2 (500 nM)).

B9: 39633-C1 (designed binder)
chain: MTIPEIIIKVRGTQVVGSDMTVIVEFTNPFKETLRSVWVHLDGPGVTRPMKKMFREIPPKTTVQWEEVVRPWVSGHRKLIASMRTQYLIHLYGELDVQIQRRDYKDDDDK
notes: group M1-A50; V91L; also called M17 (clone ID)
- B max: 74.8%
- Kd: 39.9 nM

B10: 39633-G1 (designed binder)
chain: B9 chain with T27S, S36N
notes: group M1-A50; V91L
- B max: 52%
- Kd: 38.9 nM

B11: 39633-G5 (designed binder)
chain: B9 chain with R55S, P58R, K60N, T61S
notes: group M1-A50; V91L
- B max: 64.1%
- Kd: 33.6 nM

B13: 39885-A1 (designed binder)
chain: MTIPEIIIKVRGTQVVGSDMTVIVEFTNPLKETLRNVWVHLDGPGVTRPMKKMFPAIPMNHKVQWEEVVRPWVSGHRKLIASMPQLFHIHVYGELDVQIQRRDYKDDDDK
notes: group M1-A; also called M1-1 (clone ID)
- B max: 67.3%
- Kd: 21.8 nM

B14: 39885-C11 (designed binder)
chain: B13 chain with P84I, Q85N, L86Y, H88Y, I89K
notes: group M2-A
- B max: 18.8%
- Kd: 41.6 nM

B15: 39885-C1 (designed binder)
chain: B13 chain with P84L, Q85N, L86H, H88Y, I89K
notes: group M2-A
- B max: 33.3%
- Kd: 140 nM

B17: 39885-D11 (designed binder)
chain: B13 chain with P84I, Q85N, L86H, H88Y, I89K
notes: group M2-A
- B max: 22.3%
- Kd: 41 nM

B19: 39885-F8 (designed binder)
chain: B13 chain with I89L
notes: group M1-A; also called M7-L (clone ID)
- B max: 98.6%
- Kd: 28.1 nM

B20: 39633-D3 (V39M) (designed binder)
chain: MTIPEIIIKVRGTQVVGSDMTVIVEFSNPFKETLRNVWMHLDGPGVTRPMKKMFSEIRPNSTVQWEEVVRPWVSGHRKLIASMPSLLHLHVYGELDVQIQRRDYKDDDDK
notes: group M2-A50; V39M
- B max: 65.8%
- Kd: 26.2 nM

B21: 39633-E4 (designed binder)
chain: B20 chain with M39V, N60D
notes: group M2-A50; also called M019 (clone ID)
- B max: 60%
- Kd: 27.8 nM

B24: 39633-H6 (M50V) (designed binder)
chain: B20 chain with S27T, N36S, M39V, M50V, S55R, R58P, N60K, S61T
notes: group M2-A50; M50V
- B max: 61.6%
- Kd: 24.8 nM

B26: 39885-C7 (designed binder)
chain: B13 chain with P55R
notes: group M1-A; also called M3-1 (clone ID)
- B max: 68.4%
- Kd: 17.4 nM

B27: 39633-A1 (designed binder)
chain: B9 chain with K60N, R84P, Q86H, Y87H, I89L, L91V
notes: group M4-A50
- B max: 63.9%
- Kd: 25.5 nM

B29: 39885-B5 (F26V) (designed binder)
chain: B13 chain with F26V
notes: group M1-A; F26V; also called M2-1 (clone ID)
- B max: 72.2%
- Kd: 25.1 nM

B31: 39633-D2 (designed binder)
chain: B20 chain with S27T, P29L, F30M, M39V
notes: group M2-A50
- B max: 6.74%
- Kd: 11.2 nM

B32: 39885-F10 (S82C) (designed binder)
chain: B13 chain with S82C
notes: group M1-A; S82C
- B max: 73.7%
- Kd: 15.4 nM

B33: 39885-F7 (designed binder)
chain: B13 chain with A56T, Q85H
notes: group M1-A
- B max: 62.7%
- Kd: 24.1 nM

B37: 39885-D8 (K9R) (designed binder)
chain: B13 chain with K9R, N60D
notes: group M1-A; K9R; also called M5-2 (clone ID)
- B max: 57.6%
- Kd: 24.7 nM

More lines, now with the values ahead:

- B max: 41.2%
- Kd: 65 nM
B1: 45927-A11 (designed binder)
chain: MTIPEIIIKVRGTQVVGSDMTVIVEFTNPLKETLRNVWVHLDGPGVTRPMKKMFQKIPGCSTVQWEEVVRPWVSGHRKLIASMSMLGLPFSLRFIPVYGELDVQIQRRDYKDDDDK
notes: group M1-Aext

- B max: 46.4%
- Kd: 57.6 nM
B2: 45927-B7 (M50T) (designed binder)
chain: B1 chain with M50T, Q55L
notes: group M1-Aext; M50T

- B max: 7.66%
- Kd: 32.9 nM
B3: 39973-D2 (designed binder)
chain: MTIPEIIIKVRGTQVVGSDMTVIVEFYFSPGARLATVWVHLDGPGVTRPMKKMFHSIYVPFWVQWEEVVRPWVSGHRKLIASMTTTVQGHVYGELDVQIQRRDYKDDDDK
notes: group M3-A

- B max: 3.08%
- Kd: 1.47 nM
B4: 45927-A12 (designed binder)
chain: MTIPEIIIKVRGTQVVGSDMTVIVEFTNPLRVSEQTLRNVWVHLDGLGVTRPMKKMFGGIRVHSTVQWEEVVRPWVSGHRKLIASMSYVAEYGEWTHYSVYGELDVQIQRRDYKDDDDK
notes: group M3-Aext

- B max: 7.77%
- Kd: 34.5 nM
B5: 39973-B12 (designed binder)
chain: MTIPEIIIKVRGTQVVGSDMTVIVEFKHDRYRYLQQVWVHLDGPGVTRPMKKMFKLIIFSYPVQWEEVVRPWVSGHRKLIASMRFMCPSHVYGELDVQIQRRDYKDDDDK
notes: group M3-A

- B max: 1.81%
- Kd: 22 nM
B6: 39973-G3 (designed binder)
chain: MTIPEIIIKVRGTQVVGSDMTVIVEFTNPLKETLRNVWVHLDGPGVTRPMKKMFEQIRESEYVQWEEVVRPWVSGHRKLIASMLTETRPHVYGELDVQIQRRDYKDDDDK
notes: group M3-A

- B max: 8.36%
- Kd: 64.1 nM
B7: 45927-E5 (designed binder)
chain: MTIPEIIIKVRGTQVVGSDMTVIVEFTNPSNYRPCILRNVWVHLDGPGVTRPMKKMFKMIVYHSTVQWEEVVRPWVSGHRKLIASMSKFELSGTSSRGRVYGELDVQIQRRDYKDDDDK
notes: group M3-Aext

- B max: 4.57%
- Kd: 6.04 nM
B8: 45927-E1 (designed binder)
chain: MTIPEIIIKVRGTQVVGSDMTVIVEFTNPLKETLRNVWVHLDGPGVTRPMKKMFTGILQWSTVQWEEVVRPWVSGHRKLIASMSPHAWWQHHGNFSVYGELDVQIQRRDYKDDDDK
notes: group M2-Aext

- B max: 8.07%
- Kd: 16.1 nM
B12: 45927-A10 (designed binder)
chain: MTIPEIIIKVRGTQVVGSDMTVIVEFTNPKRDTSVWLRNVWVHLDGPGVTRPMKKMFFTIGYPSTVQWEEVVRPWVSGRRKLIASMSPSILSKGNIGLGVYGELDVQIQRRDYKDDDDK
notes: group M3-Aext; H76R (wild type scaffold numbering)

- B max: 83.1%
- Kd: 9.99 nM
B16: 39888-G5 (S82I) (designed binder)
chain: B13 chain with S82I
notes: group M1-A; S82I

- B max: 68%
- Kd: 28.6 nM
B18: 39973-F10 (designed binder)
chain: B13 chain with P55A, A56T, M59P, N60Y, H61L, K62P, F87I, I89L
notes: group M1-A

- B max: 69.2%
- Kd: 30.8 nM
B22: 39885-G8 (designed binder)
chain: B13 chain with A56T
notes: group M1-A; also called M10-3 (clone ID)

- B max: 1.19%
- Kd: 7.09 nM
B23: 39888-B7 (designed binder)
chain: B13 chain with P84N, Q85S, L86S, F87S, H88N, I89Q
notes: group M3-A

- B max: 49%
- Kd: 28.4 nM
B25: 39908-G4 (designed binder)
chain: B20 chain with M39V
notes: group M2-A50; also called M7 (clone ID)

- B max: 34.1%
- Kd: 25.6 nM
B28: 39908-G12 (designed binder)
chain: B20 chain with S27T, N36S, M39V
notes: group M2-A50; also called M10 (clone ID)

- B max: 72%
- Kd: 22.8 nM
B30: 39973-C10 (designed binder)
chain: B13 chain with A56T, P58S, M59R, N60F, H61K, K62R, F87Q, I89L
notes: group M1-A

- B max: 82.4%
- Kd: 13.6 nM
B34: 39888-A11 (D42N) (designed binder)
chain: B13 chain with D42N
notes: group M1-A; D42N; also called M14-1 (clone ID); 39888-All(D42N)

- B max: 24.1%
- Kd: 14.1 nM
B35: 39885-H9 (designed binder)
chain: B13 chain with P84I, Q85N, L86Y, H88Y, I89N
notes: group M2-A

- B max: 59.4%
- Kd: 28.5 nM
B36: 39885-G5 (designed binder)
chain: B13 chain with M59Y, N60L, H61S, K62Y, F87H, I89L
notes: group M1-A; also called M8-L (clone ID)

- B max: 47.3%
- Kd: 29.7 nM
B38: 39908-H10 (designed binder)
chain: B20 chain with S27T, N36S, M39V, S55R, R58P, N60K, S61T
notes: group M2-A50; also called M4 (clone ID)
